Test results taken from patent US20240400698A1, “ANTI-CHEMOKIN LIKE RECEPTOR 1 ANTIBODIES AND THEIR THERAPEUTIC APPLICATIONS” (OSE IMMUNOTHERAPEUTICS, priority 2018, published 2024).

Columns and labels:
[1] = system: CT26 cells; assay: CT26 colon carcinoma model; type: in vivo, mice; settings: FIG. 9A-C, 20 μg/injection i.p. for 3 weeks
Experimental: FIG. 9. […] Two mice models were studied, and animals received isotype control antibody (3G8) (x) or anti-CMKLR1 (2G1) ( ) at 20 μg/injection intraperitoneally for 3 weeks. A-C. Results in the CT26 colon carcinoma model comparing single treatment with p84 (A) and 2G1 (B) with combined therapy with both antibodies (C). D: Results in the MC38 colon carcinoma model.
8-week old C57bl/6J male mice were anesthetized with 3% of isoflurane. Mice were shaved on the flank and MC38 cells (0.5·10^6 cells/mouse) cell lines were injected subcutaneously with an insulinic syringe (30 Gauges) in 50 μL of PBS. Another model was used, in which 8-week old Balb/c male mice were anesthetized with 3% of isoflurane. Mice were shaved on the flank and CT26 cells (1·10^6 cells/mouse) were injected subcutaneously with an insulinic syringe (30 Gauges) in 50 μL of PBS.
The agonistic anti-CMKLR1 antibody (2G1) or an anti-SIRPa antibody (p84-anti-mouse SIRPa from Merck Millipore) (SIRPa is a new checkpoint inhibitor) were injected once a week (20 μg/injection) intraperitoneally for 3 weeks starting at d4 after tumor inoculation alone or combined.

[2] = system: human macrophages M1 or M2; assay: Human monocyte differentiation and polarization, CD200R by FACS and cytokine secretion by ELISA, FIG. 16; type: cell-based; settings: human cells, 2 μg/ml
Experimental: FIG. 16. Study of the inflammatory cytokine secretion by human macrophages during CMKLR1 activation. After differentiation of human monocytes, cells were incubated in presence of different isotype controls (mIgG4; hIgG4 or hIgG1 at […]); C7 commercial anti-CMKLR1 antibody (2 μg/ml); 2G4 or 2G1 antibodies (2 μg/ml), or other commercial anti-CMKLR1 antibodies (H6 (2 μg/ml), BZ332 (2 μg/ml) or 84939 (2 μg/ml), C15 peptides (10 nM), or RvE1 (10 ng/ml). A. Expression of the CD200R marker measured by FACS. B. IL10 cytokine secretion by M2 cells. C. CCL17 cytokine secretion by M2 cells. D. represents IL12 cytokine secretion by M1 cells. Secretion of IL10, CCL17 and IL12p40 were assessed by ELISA.
Monocytes were collected from PBMC of buffy coat of healthy volunteers and isolated by magnetic separation or by elutriation. Then, monocytes were cultured with different cocktails of cytokines to generate differentiated unpolarized macrophages or polarized macrophages. This protocol allowed to generate polarized differentiated macrophages in order to have pro-(M1) or anti-(M2) inflammatory macrophages in different wells. Monocytes were plated at 0.5·10^6 cells/mL in complete RPMI (RPMI with 10% FBS, 1% glutamine, 1% antibiotics) and 500 μL of the cell suspension was plated per well in a 24-well plate. 100 ng/ml of M-CSF was added with medium for differentiation of the cells. Cells were incubated 5 days and medium was replaced with fresh medium complemented with 100 ng/ml of M-CSF at day 3. For the polarization phases, solution of LPS-IFNg at 100 ng/ml of LPS and 20 ng/ml of IFNg complemented with isotype controls (mIgG1 or hIgG4) (2 μg/ml) or anti-CMKLR1 antibodies (2 μg/ml) (2G1 or 2G4, H6, BZ332 or 84939) or with C15 peptide (10 nM) or RvE1 (10 ng/ml) during 3 days to generate M1 macrophages. M1-IFNg macrophages could also be generated by adding only IFNg (20 ng/ml) in culture medium. […]
Cytokines secretion was detected by ELISA according to the BD manufacturer instructions. […] TMB supplied by BD Bioscience was used as substrate and colorimetric reaction was read with TECAN.

B1: 2G1: chimeric anti-CMKLR1 antibody, murine variable regions (SEQ ID No: 10 and 17), human IgG1 constant regions; VH-CDR3 variant LI (antibody, V domains shown)
VH: METDTLLLWVLLLWVPGSTGDEVQLVASGGGLVQPGGSLKLSCAASGFTFSSYGMSWVRQTPDRRLELVATINRYGGSTYYPDSVKGRFTISRDNAKNTLYLQMSSLKSEDTAMYYCPRLIYYGNEGDSWGQGTTLTVSS
VL: METDTLLLWVLLLWVPGSTGDQIVLTQSPAIMSASPGEKVTMTCSASSSVSFMHWYQQKSGTSPKRWIYDTTKLTSGVPARFSGSGSGTFYSLTISSMEAEDAATYYCQQWNSKPPLTFGPGTKLELKR
modifications: human IgG1 constant regions
notes: VH-CDR3 variant LI
[1]
  tumor development / tumor growth: did not demonstrate a clinical effect on the tumor development
[2]
  CCL17 secretion by M2 type macrophages: able to induce
  IL10 secretion by M2 type macrophages: able to induce
  secretion of the IL12p40 cytokine by M1 type macrophages: able to decrease the secretion
